# T1: fCK18 in apoptosis-induced HepG2 cell culture supernatant (human, UniProt P05783 239-397)
# T1 construct: Natural CK18 fragment from the culture supernatant of apoptosis-induced HepG2 cells (band around 18 KDa); also called fCK18 in apoptosis-inducing cells
# T1 sequence: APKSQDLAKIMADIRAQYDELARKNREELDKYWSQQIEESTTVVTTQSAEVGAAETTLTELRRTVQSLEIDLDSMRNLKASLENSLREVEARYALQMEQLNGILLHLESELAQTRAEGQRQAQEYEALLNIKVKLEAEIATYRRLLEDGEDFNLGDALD
# Columns and labels:
# [1] = target: T1, fCK18 in apoptosis-induced HepG2 cell …; assay: HISCL sandwich immunoassay; K18-624 magnetic microbeads capture, K18-328Fab-ALP detector; fCK18 0.74 ng/mL
# [2] = target: T1, fCK18 in apoptosis-induced HepG2 cell …; assay: plate ELISA with K18-624 magnetic microbeads, K18-328Fab-ALP detector; fCK18 6.79 ng/mL
# Procedure: (§1) Measurement samples of 3-fold dilution series (3-fold to 6561-fold dilution) were prepared from the apoptosis-induced HepG2 cell culture supernatant with a diluent (TBS, pH 7.5, 2% BSA), and fCK18 was measured. […] Based on the prepared calibration curve, fCK18 in the measurement sample was measured.
# (§2) This solution was added to an ELISA plate at 25 μL/well, then each measurement sample was added at 25 μL/well, and the plate was incubated (1500 rpm, RT, 20 min). […] (3) After washing the plate, the HISCL (registered trademark) R4 reagent was added thereto at 50 μL/well, and then the mixture was stirred (1500 rpm, RT, 1 min). Thereafter, the HISCL (registered trademark) R5 reagent was added at 100 μL/well, and then the mixture was stirred (1000 rpm, RT, 10 sec). (4) Luminescence intensity was measured with a plate reader.
# [3] = target: T1, fCK18 in apoptosis-induced HepG2 cell …; assay: HISCL sandwich immunoassay; K18-624 magnetic microbeads capture, K18-328Fab-ALP detector
# [4] = target: T1, fCK18 in apoptosis-induced HepG2 cell …; assay: HISCL sandwich immunoassay; K18-624 magnetic microbeads capture, K18-328Fab-ALP detector; fCK18 2.23 ng/mL
# [5] = target: T1, fCK18 in apoptosis-induced HepG2 cell …; assay: plate ELISA with K18-624 magnetic microbeads, K18-328Fab-ALP detector; fCK18 0.28 ng/mL
# Procedure: as §1, §2
# [6] = target: T1, fCK18 in apoptosis-induced HepG2 cell …; assay: plate ELISA with K18-624 magnetic microbeads, K18-328Fab-ALP detector; fCK18 182.28 ng/mL
# Procedure: as §1, §2
binder,measurement,setting,value
"K18-624 antibody (antibody, V domains shown, Mouse monoclonal antibody from a hybridoma (Balb/C mouse immunised with Peptide 1-KLH)) VH: DVQLVESGGGLVQPGGSRKLSCAASGFTFSSFGMHWVRQAPEKGLEWVAYISSGSTTIYYADTVKGRFTISRDNPKNTLFLQMTSLRSEDTAMYYCARRGMITTGAWFAYWGQGTLVTVSA VL: DILLTQSPAILSVSPGERVSFSCRASQRIGTSIHWYQQRTNGSPRLLIKYASESISGIPSRFSGSGSGTDFTLSINSVESEDIADYYCQQSYIWPFTFGSGTKLEIK",S/N ratio,[1],9.4
same,S/N ratio,[2],158
same,fCK18 concentration detectable (S/N ratio of 2 or more),[3],≥ 0.28 ng/mL
same,fold detection sensitivity compared with Comparative Example 1 (M30 antibody),[3],~8 fold
same,S/N ratio,[4],25.9
same,S/N ratio,[5],5.9
same,S/N ratio,[6],5560

# Reference: US20220267427A1 (SYSMEX, published 2022)
